Non-standard residues stand in square brackets, D forms with d. Groups on a side chain read outwards from the residue. Primed or numbered codes have the meaning given here. No end group written: not given here. *: point of attachment. C20 diacid = O=C(O)CCCCCCCCCCCCCCCCCCC(=O)*; NMeY = CN[C@@H](Cc1ccc(O)cc1)C(=O)O; Stearoyl = CCCCCCCCCCCCCCCCCC(=O)*; αMeF = C[C@](N)(Cc1ccccc1)C(=O)O; dIva = CC[C@@](C)(N)C(=O)O; Iva = CC[C@](C)(N)C(=O)O; PEG2′ = not defined here; Aib = CC(C)(N)C(=O)O
T1: human GIPR (human), P48546
T1 chain: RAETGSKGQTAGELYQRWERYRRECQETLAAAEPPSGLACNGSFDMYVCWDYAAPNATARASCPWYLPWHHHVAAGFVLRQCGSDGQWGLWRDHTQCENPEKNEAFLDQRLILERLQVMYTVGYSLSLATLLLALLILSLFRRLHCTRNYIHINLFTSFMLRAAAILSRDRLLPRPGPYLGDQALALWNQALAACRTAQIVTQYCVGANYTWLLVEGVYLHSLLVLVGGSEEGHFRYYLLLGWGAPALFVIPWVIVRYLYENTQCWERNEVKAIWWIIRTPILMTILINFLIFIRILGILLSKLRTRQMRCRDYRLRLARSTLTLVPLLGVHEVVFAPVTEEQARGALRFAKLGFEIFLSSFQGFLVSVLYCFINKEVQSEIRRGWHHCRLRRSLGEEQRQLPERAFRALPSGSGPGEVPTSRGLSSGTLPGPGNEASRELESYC

T2: human GLP-1R (human), P43220
T2 chain: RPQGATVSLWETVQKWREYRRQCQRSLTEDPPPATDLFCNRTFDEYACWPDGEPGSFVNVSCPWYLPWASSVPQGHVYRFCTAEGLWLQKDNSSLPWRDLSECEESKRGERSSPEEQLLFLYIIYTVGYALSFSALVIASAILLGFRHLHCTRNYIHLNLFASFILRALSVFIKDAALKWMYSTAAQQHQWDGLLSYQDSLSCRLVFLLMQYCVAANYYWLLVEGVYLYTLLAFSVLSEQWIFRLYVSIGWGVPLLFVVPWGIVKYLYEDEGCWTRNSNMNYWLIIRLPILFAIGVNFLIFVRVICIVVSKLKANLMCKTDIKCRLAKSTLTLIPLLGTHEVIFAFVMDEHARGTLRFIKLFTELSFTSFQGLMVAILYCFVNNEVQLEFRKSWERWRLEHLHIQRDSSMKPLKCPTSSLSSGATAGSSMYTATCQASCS

B1: Compound 256 (peptide)
peptide: Y[Aib]EGTVVSLYSK([Gly-Gly-Gly-Gly-C20 diacid])[Aib]LDRQAQ[Aib]EFVRWLLAQR
modifications: ends and bridges not checked
B2: Compound 257 (peptide)
peptide: Y[Aib]EGTVVSLYSK([Gly-Gly-Gly-Gly-Stearoyl])[Aib]LDRQAQ[Aib]EFVRWLLAQR
modifications: ends and bridges not checked
B3: Compound 258 (peptide)
peptide: Y[Aib]EGTVVSLYSK([Gly-Gly-Gly-Gly-Stearoyl])[Aib]LDRQAQ[Aib]EFVRWLLAQR
modifications: ends and bridges not checked
B4: Compound 259 (peptide)
peptide: Y[Aib]EGTVVSLYSK([Gly-Gly-Gly-Gly-C20 diacid])[Aib]LDRQAQ[Aib]EFVK(Ac)WLLAQR
modifications: ends and bridges not checked
B5: Compound 261 (peptide)
peptide: Y[Aib]EGTVVSLYSK([Gly-Gly-Gly-Gly-Stearoyl])[Aib]LDRQAQ[Aib]EFVK(Ac)WLLAQR
modifications: ends and bridges not checked
B6: Compound 402 (peptide)
peptide: Y[Aib]EGTFISDYSK([PEG(2)-C20 diacid])ALDRIAQQNFVNW[Iva]LAQRPSSGAPPPS
modifications: not fully specified (C-terminus); ends and bridges not checked
B7: Compound 406 (peptide)
peptide: Y[Aib]EGTFISDYSK([PEG(2)-C20 diacid])ALDRIAQQNFVNW[Iva]LAQRPSSGAPPPS
modifications: not fully specified (C-terminus); ends and bridges not checked
B8: Compound 60 (peptide)
peptide: [NMeY][Aib]EGTFISDYSIALDRIAQQSFVNWLLAQRPSSGAPPPSR
modifications: ends and bridges not checked
B9: Compound 62 (peptide)
peptide: [NMeY][Aib]EGTFISDYSIALDRIAQQD[αMeF]VNWLLAQRPSSGAPPPS
modifications: ends and bridges not checked
B10: Compound 63 (peptide)
peptide: [NMeY][Aib]EGTFISDYSI[dIva]LDRIAQQDFVNWLLAQRPSSGAPPPS
modifications: ends and bridges not checked
B11: Compound 67 (peptide)
peptide: [NMeY][Aib]EGTFISDYSIALDRIAQQSFVNW[Iva]LAQRPSSGAPPPSR
modifications: not fully specified (N-terminus, C-terminus); ends and bridges not checked
B12: Compound 73 (peptide)
peptide: [NMeY][Aib]EGTFISDYSIALDR[Aib]AQQD[αMeF]VNWLLAQRPSSGAPPPSR
modifications: not fully specified (C-terminus); ends and bridges not checked
B13: Compound 74 (peptide)
peptide: [NMeY][Aib]EGTFISDYSI[Iva]LDRIAQQD[αMeF]VNWLLAQRPSSGAPPPSR
modifications: not fully specified (C-terminus); ends and bridges not checked
B14: Compound 75 (peptide)
peptide: [NMeY][Aib]EGTFISDYSIALDRIAQQS[αMeF]VNW[Iva]LAQRPSSGAPPPSR
modifications: not fully specified (C-terminus); ends and bridges not checked
B15: Compound 76 (peptide)
peptide: [NMeY][Aib]EGTFISDYSIALDRIAQ[Aib]N[αMeF]VNW[Iva]LAQRPSSGAPPPSR
modifications: not fully specified (C-terminus); ends and bridges not checked
B16: Compound 81 (peptide)
peptide: [NMeY][Aib]EGTFISDYSI[dIva]LDR[Aib]AQQD[αMeF]VNWLLAQRPSSGAPPPSR
modifications: ends and bridges not checked
B17: Compound 82 (peptide)
peptide: [NMeY][Aib]EGTFISDYSIALDR[Aib]AQ[Aib]NFVNWLLAQRPSSGAPPPSR
modifications: ends and bridges not checked
B18: Compound 83 (peptide)
peptide: [NMeY][Aib]EGTFISDYSI[dIva]LDRIAQ[Aib]NFVNWLLAQRPSSGAPPPSR
modifications: ends and bridges not checked
B19: Compound 85 (peptide)
peptide: [NMeY][Aib]EGTFISDYSI[dIva]LDR[Aib]AQ[Aib]NFVNW[Iva]LAQRPSSGAPPPSR
modifications: ends and bridges not checked
B20: Compound 98 (peptide)
peptide: [NMeY][Aib]EGTFISDYSIALDR[Aib]AQ[Aib]N[αMeF]VNWLLAQRPSSGAPPPSR
modifications: ends and bridges not checked
B21: Compound 103 (peptide)
peptide: [NMeY][Aib]EGTFISDYSI[dIva]LDR[dIva]AQ[dIva]NFVNWLLAQRPSSGAPPPSR
modifications: not fully specified (N-terminus, C-terminus); ends and bridges not checked
B22: Compound 114 (peptide)
peptide: [NMeY][Aib]EGTFISDYSIALDR[Aib]AQ[Aib]N[αMeF]VNW[Iva]LAQRPSSGAPPPSR
modifications: ends and bridges not checked
B23: Compound 123 (peptide)
peptide: [NMeY][Aib]EGTFISDYSIALDRIAQ[Aib]DFVNW[Iva]LAQRPSSGAPPPSR
modifications: ends and bridges not checked
B24: Compound 125 (peptide)
peptide: Me-Y[Aib]EGTFISDYSIALDRIAQ[Aib]S[αMeF]VNW[Iva]LAQRPSSGAPPPSR
modifications: not fully specified (residue 1, C-terminus); ends and bridges not checked
B25: Compound 126 (peptide)
peptide: Me-Y[Aib]EGTFISDYSIALDR[Aib]AQ[Aib]SFVNW[Iva]LAQRPSSGAPPPSR
modifications: not fully specified (residue 1, C-terminus); ends and bridges not checked
B26: Compound 129 (peptide)
peptide: Me-Y[Aib]EGTFISDYSIALDRIAQQSFVNWLLAQRPSSGAPPPS
modifications: not fully specified (residue 1, C-terminus); ends and bridges not checked
B27: Compound 131 (peptide)
peptide: Me-Y[Aib]EGTFISDYSI[dIva]LDRIAQQDFVNWLLAQRPSSGAPPPSR
modifications: not fully specified (residue 1, C-terminus); ends and bridges not checked
B28: Compound 187 (peptide)
peptide: Y[Aib]EGTFISDYSK([PEG2′-pentadecanoyl])ALDRIAQQDFVNWLLAQRPSSGAPPPSR
modifications: ends and bridges not checked

Molecular target: T1, human GIPR (human), P48546

Binder	Agonist activity (EC50, M)
B1	3.1e-10 M
B2	9e-11 M
B3	9.2e-11 M
B4	1.2e-10 M
B5	5.5e-11 M
B6	7.8e-11 M
B7	3.2e-10 M
B8	1.1e-12 M
B9	9.9e-13 M
B10	1.2e-12 M
B11	1.4e-12 M
B12	1.4e-12 M
B13	1.4e-12 M
B14	1.4e-12 M
B15	1.5e-12 M
B16	1.5e-12 M
B17	1.4e-12 M
B18	1.7e-12 M
B19	1.1e-12 M
B20	1.4e-12 M
B21	1.3e-12 M
B22	1e-12 M
B23	1.3e-12 M
B24	1.8e-12 M
B25	2.1e-12 M
B26	1.7e-12 M
B27	1.9e-12 M
B28	1.2e-11 M

Molecular target: T2, human GLP-1R (human), P43220

Binder	Agonist activity (EC50, M)
B1	> 1e-06 M
B2	> 1e-06 M
B3	> 1e-06 M
B4	> 1e-06 M
B5	> 1e-06 M
B6	> 1e-06 M
B7	> 1e-06 M
B8	> 1e-06 M
B9	> 1e-06 M
B10	> 1e-06 M
B11	> 1e-06 M
B12	> 1e-06 M
B13	> 1e-06 M
B14	> 1e-06 M
B15	> 1e-06 M
B16	> 1e-06 M
B17	1e-07 M
B18	1.7e-07 M
B19	> 1e-06 M
B20	> 1e-06 M
B21	> 1e-06 M
B23	> 1e-06 M
B24	> 1e-06 M
B25	> 1e-06 M
B26	> 1e-06 M
B27	> 1e-06 M

Reference: patent US20180298070A1, “PEPTIDE COMPOUND” (Takeda Pharmaceutical Company Limited, published 2018)
